The target of series [1] is T1, purine nucleoside phosphorylase (PNP) (Bos taurus, UniProt P55859).
T1 construct: Spleen; from tissue; host or cells: spleen
T1 sequence (P55859 1-289): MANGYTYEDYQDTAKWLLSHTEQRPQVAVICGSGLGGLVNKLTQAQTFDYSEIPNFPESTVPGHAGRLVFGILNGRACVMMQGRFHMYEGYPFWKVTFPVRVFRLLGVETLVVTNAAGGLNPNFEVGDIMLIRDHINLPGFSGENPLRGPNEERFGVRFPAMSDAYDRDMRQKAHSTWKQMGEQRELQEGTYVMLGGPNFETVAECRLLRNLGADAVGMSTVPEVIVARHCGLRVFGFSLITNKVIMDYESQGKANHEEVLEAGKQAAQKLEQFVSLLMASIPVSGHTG
The series is described as follows: PNP inhibition, coupled xanthine oxidase method of Kalckar, bovine spleen PNP. Format: biochemical.

In series [2] the target is T2, purine nucleoside phosphorylase (PNP) (Homo sapiens, UniProt P00491).
T2 construct: Erythrocytes; from tissue; host or cells: erythrocytes
T2 sequence (P00491 1-289): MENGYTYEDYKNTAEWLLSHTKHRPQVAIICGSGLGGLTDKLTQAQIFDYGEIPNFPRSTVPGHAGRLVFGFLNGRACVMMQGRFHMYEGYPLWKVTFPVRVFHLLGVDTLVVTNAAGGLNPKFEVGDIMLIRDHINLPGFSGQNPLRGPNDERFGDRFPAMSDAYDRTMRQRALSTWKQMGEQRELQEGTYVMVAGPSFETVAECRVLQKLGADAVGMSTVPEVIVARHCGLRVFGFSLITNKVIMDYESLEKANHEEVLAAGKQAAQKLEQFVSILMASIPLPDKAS
The series is described as follows: PNP inhibition, coupled xanthine oxidase method of Kalckar, human erythrocyte PNP. Format: biochemical. To be noted: 1 mM inorganic phosphate, 0.1M HEPES pH 7.4, inosine 0.05-0.15 mM as substrate; read-out: Ki (apparent dissociation constant), Human Erythrocytes PNP.

Substrate in series [3]: OC[C@H]1O[C@@H](n2cnc3c(O)ncnc32)[C@H](O)[C@@H]1O
The description is as above. Format: biochemical. Conditions: other: substrate KM for comparison with Ki; pH 7.4.

Substrate in series [4]: OC[C@H]1O[C@@H](n2cnc3c(O)ncnc32)[C@H](O)[C@@H]1O
The series is described as follows: PNP inhibition, coupled xanthine oxidase method of Kalckar, E. coli PNP. The format is biochemical. To be noted: other: substrate KM for comparison with Ki; pH 7.4.

Substrate in series [5]: OC[C@H]1O[C@@H](n2cnc3c(O)ncnc32)[C@H](O)[C@@H]1O
As to the kind of experiment: PNP inhibition, coupled xanthine oxidase method of Kalckar, bovine spleen PNP. Format: biochemical. Conditions: other: substrate KM for comparison with Ki; pH 7.4.

Substrate in the series “purified protein”: OC[C@H]1O[C@@H](n2cnc3c(O)ncnc32)[C@H](O)[C@@H]1O
The series is described as follows: purified protein. To be noted: other: substrate KM for comparison with Ki; pH 7.4.

In series [1], `Nc1nc2c(ncn2Cc2ccccc2OCCC(F)(F)P(=O)(O)O)c(=O)[nH]1` returned a Ki of 250 nM. On the same count and under the same terms, the figure for `Nc1nc2c(ncn2Cc2ccccc2OCP(=O)(O)O)c(=O)[nH]1` [[2-[(2-amino-1,6,dihydro-6-oxo-9H-purin-9yl)methyl]phenoxy]methylphosphonic acid] is 7.5 nM.

For `Nc1nc2c(ncn2Cc2ccccc2C(F)C(F)(F)P(=O)(O)O)c(=O)[nH]1` (stereo not shown) [[2-[2-[(2-amino-1,6-dihydro-6-oxo-9H-purin-9-yl)methyl]phenyl]-1,1,2-trifluoroethyl]phosphonic acid], in series [2], the Ki stood at 1.3 nM.

B1: purine nucleoside phosphorylase (PNP) (Homo sapiens) (protein)
chain: T2 sequence (P00491 1-289)
notes: Erythrocytes; from tissue; host or cells: erythrocytes
For the molecule B1, in series [3], the Km was 150 µM.

B2: purine nucleoside phosphorylase (PNP) (Escherichia coli K-12) (protein)
chain: ATPHINAEMGDFADVVLMPGDPLRAKYIAETFLEDAREVNNVRGMLGFTGTYKGRKISVMGHGMGIPSCSIYTKELITDFGVKKIIRVGSCGAVLPHVKLRDVVIGMGACTDSKVNRIRFKDHDFAAIADFDMVRNAVDAAKALGIDARVGNLFSADLFYSPDGEMFDVMEKYGILGVEMEAAGIYGVAAEFGAKALTICTVSDHIRTHEQTTAAERQTTFNDMIKIALESVLLGDKE
Consider B2, for which the Km in series [4] was found to be 80 µM.

B3: purine nucleoside phosphorylase (PNP) (Bos taurus) (protein)
chain: T1 sequence (P55859 1-289)
notes: Spleen; from tissue; host or cells: spleen
On to B3, for which the Km in series [5] was 30 µM.

B4: purine nucleoside phosphorylase (PNP) (Rattus norvegicus) (protein)
chain: MENEFTYEDYQRTAEWLRSHTKHRPQVAVICGSGLGGLTAKLTQPQAFDYNEIPNFPQSTVQGHAGRLVFGFLNGRSCVMMQGRFHMYEGYSLSKVTFPVRVFHLLGVDTLVVTNAAGGLNPKFEVGDIMLIRDHINLPGFCGQNPLRGPNDERFGVRFPAMSDAYDRDMRQKAFNAWKQMGEQRELQEGTYIMSAGPTFETVAESCLLRMLGADAVGMSTVPEVIVARHCGLRVFGFSLITNKVVMDYNNLEKASHQEVLEAGKAAAQKLEQFVSILMESIPPRERAN
With B4, in “purified protein”, the Km stood at 150 µM.

Usually Km stands for the concentration of substrate that gives half-maximal velocity.
